The target of the experiment is GST-Ran Q69L, GTP-bound (UniProt Q9VZ23). The experiment is described as follows: pull-down; GST-Ran loaded with GDP or GST-Ran Q69L loaded with GTP γS, or GST alone, on beads incubated with TIM-V5 expressed in S2 cells, 4 h at 4°C; bound TIM-V5 detected with anti-V5.

Turning to “V5-tagged wild-type TIM (TIMELESS) (from UniProt P49021 1-1398) (natural protein)”, the ratio of binding, Ran GTP over Ran GDP was determined as 1.64.

The record behind these values is publication PMC4335507.
